Substitutions are numbered along the chain they refer to.
B1: 9G6 (VHH)
VHH: EVQLVESGGGLVQAGGSLRLSCAASGRTLSDYTMGWFRQAPGKEREFVARINTGGPITSYSDSVKGRFTISRDNAKNTVYLQMNSLKPEDTAVYNCAARLPTKMSPRDYSSYAYRGQGTQVTVSS
notes: anti-HGF Nanobody clone; not shown: c-myc and His6 tags
B2: 6F6 (VHH)
VHH: EVQLVESGGGLVQPGGSLRLSCAASGSILGINAMGWYRQAPGKQRELVAVINSGGSTNYADSVKGRFTISRDNAKNTVYLQMNSLKPEDTAVYYCNADEWGDYPGQVYDYWGQGTQVTVSS
notes: as for B1
B3: 6H6 (VHH)
VHH: EVQLMESGGGLVQAGGSLRLSCAASGRTFSSYAMGWFRQAPGKERENVAAISSSGGYTYYPDSVKGRFTISRDTAKNTVYLQMNSLKPDDTAVYYCAGTQPNFGWQLLLLQTEYDYWGQGTQVTVSS
notes: as for B1
B4: 5C7 (VHH)
VHH: EVQLVESGGGLVQAGDSLRLSCAASGGTFGSSHMAWFRQVPEKEREFVAAISRSGGTTYYADSVKGRCTISRDNAKNTVYLQMNSLKPEDTAVYYCAAARFWGSTSTRMDDYQYWGQGTQVTVSS
notes: as for B1
B5: 7G6 (VHH)
VHH: EVQLVESGGGLVQAGGSLRLSCAVSGRTFSPYTMGWFRRAPGKEREFVAARTWSGGVAWYADSVKGRFTISSDNAENMVYLQMNSLKPEDTAVYYCAAKSPGRTYSPREERAYARWGQGTQVTVSS
notes: as for B1
B6: 9H5 (VHH)
VHH: EVQLVESGGGLVQPGGSLRLSCAASGSIFNLNPMGWYRQAPGKQRELVATVTGEGRTNYSDSVKGRFTISRDNAKNTVYLQMNSLKPEDTAVYYCNAAFWAYDDAYWGQGTQVTVSS
notes: as for B1
B7: 1F3 (VHH)
VHH 1: EVQLVESGGGLVQSGGSLKLSCAASGFTFSNYFMSWVRQTPEKRLEWVAYISSGGGSTYYPDSVKGRFTISRDNAKNTLYLQMSSLKSEDTAMYYCVRQGDGYYGDYAMDYWGQGTSVTVSS
VHH 2: DIQMTQSPASLSVSVGETVTITCRASENIYSNLAWYQQKQGKSPQLLVYDATHLPDGVPSRFSGSGSGTQFSLKINSLQSEDFGSYYCQHFWGTPYTFGGGTRLEIKR
B8: 6G6 (VHH)
VHH: EVQLVESGGGLAQAGGSLRLSCAASGRSLSNYAMGWFRQAPGKEREIVCAISRSGSITTYADSVKGRFTIAKDNAANTVYLQMNSLKPEDTAAYYCAADPMYYGIPDQNWDYWGQGTQVTVSS
notes: as for B1
B9: 9E6 (VHH)
VHH: B8 VHH
notes: anti-HGF Nanobody clone, tested as periplasmic extract; not shown: c-myc and His6 tags
B10: 5B7 (VHH)
VHH: B8 VHH
notes: as for B9
B11: 6A6 (VHH)
VHH: B8 VHH
notes: as for B9
B12: 6E11 (VHH)
VHH: B8 VHH
notes: as for B9
B13: 5E8 (VHH)
VHH: B8 VHH
notes: as for B9
B14: 6E6 (VHH)
VHH: B8 VHH
notes: as for B9
B15: 5D10 (VHH)
VHH: B8 VHH
notes: as for B9
B16: 1E2 (VHH)
VHH: EVQLVESGGGLVQPGGSLRLSCAASGRTFSSYAMGWFRQAPGKEREFVAGISWSGSSSYYADSVKGRFTISRDNAKNTVYLQMNSLKPEDTAVYYCAADPVGRADLYEYDYWGQGTQVTVSS
notes: as for B1
B17: 1C7 (VHH)
VHH: B16 VHH with P14A, S56G, S58T, Q82R
notes: as for B9
B18: 6B2 (VHH)
VHH: B16 VHH with P14A, G50A, S52N, S56D, S58T, D99G, P100D, A104P
notes: as for B1
B19: 10G3 (VHH)
VHH: B16 VHH with P14A, A24D, I51V, S52N, S56D, S58T, T91A
notes: as for B9
B20: 5G9 (VHH)
VHH: EVQLVESGGGLVQTGGSLRLSCAASGRTFSPYAAGWFRHAPGKEREFVTAITWSGGSTYYADSVKGRFTISRDNAKNTVYLQMNSLKPEDTAVYYCAASYRWGITHEFDYWGQGTQVTVSS
notes: as for B9
B21: 6E10 (VHH)
VHH: EVQLVESGGGLVQAGGSLRLSCAASGRTDSSYAMGWFRQAPGKEHEFVAAISWSGGSTYYADSVKGRFTISRDNAKNTLYLQMNSLKPEDTAVYYCGASYRWGITHEYEYWGQGTQVTVSS
notes: as for B1
B22: 6B6 (VHH)
VHH: EVQLVESGGGLVQPGGSLRLSCAASGFTFDDYAMSWGRQAPGKGLEWVSAISWNGGSTYYAESMKGRFTVSRDNAKNTLYLQMNSLKSEDTAVYYCAKALDPLGVLAGTSGIYDYWGQGTQVTVSS
notes: as for B9
B23: 1E9 (VHH)
VHH: EVQLVESGGGLVQPGGSLRLSCAASGFTLDHYTIGWFRQAPGNEREGVSCISSLDGSTYYADSVKGRFTISRDNAKDTVYLQMNSLKPEDTAVYYCAVAGCGAYGLIPYDYWGQGTQVTVSS
notes: as for B1

target: T1, human HGF (R&D material and Peprotech material, values averaged over both) (human, UniProt P14210 32-728); assay: SPR (Biacore T100), purified Nanobody, biphasic dissociation, kd1 fitted 125-185 s after injection start
T1 construct: As printed they differ in one letter
T1 sequence (P14210 32-728 limits assumed): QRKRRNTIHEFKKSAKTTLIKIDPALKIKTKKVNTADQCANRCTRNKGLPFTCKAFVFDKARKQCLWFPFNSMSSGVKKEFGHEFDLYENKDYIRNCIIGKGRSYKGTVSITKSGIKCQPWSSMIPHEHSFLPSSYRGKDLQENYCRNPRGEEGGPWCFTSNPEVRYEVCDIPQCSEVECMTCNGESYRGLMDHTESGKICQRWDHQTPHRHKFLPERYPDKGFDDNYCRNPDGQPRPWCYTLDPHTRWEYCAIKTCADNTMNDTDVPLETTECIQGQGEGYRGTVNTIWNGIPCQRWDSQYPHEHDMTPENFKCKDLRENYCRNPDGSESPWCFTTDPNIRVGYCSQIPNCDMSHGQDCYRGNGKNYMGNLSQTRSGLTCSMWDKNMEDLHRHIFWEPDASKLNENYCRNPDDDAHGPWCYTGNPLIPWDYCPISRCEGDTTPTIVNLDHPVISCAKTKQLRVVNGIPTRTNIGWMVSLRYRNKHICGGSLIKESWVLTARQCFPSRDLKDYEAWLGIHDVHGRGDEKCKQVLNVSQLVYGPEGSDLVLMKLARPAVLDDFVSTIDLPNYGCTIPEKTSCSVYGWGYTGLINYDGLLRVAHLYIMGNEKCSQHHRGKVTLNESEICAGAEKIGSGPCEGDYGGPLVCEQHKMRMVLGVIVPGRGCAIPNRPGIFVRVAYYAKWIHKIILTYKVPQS

| koff | Binder |
| --- | --- |
| 0.00237 s⁻¹ | B1 |
| 0.00577 s⁻¹ | B2 |
| 0.00313 s⁻¹ | B3 |
| 0.00605 s⁻¹ | B4 |

target: T2, human HGF (R&D Systems, 294-HG/CF) (human, UniProt P14210 32-728); assay: SPR (Biacore T100), HGF amine-coupled to CM5 chip, periplasmic extract at one dilution
T2 construct: The entry begins at QRKRR, without signal peptide; Amine-coupled to the chip in SPR and biotinylated in AlphaScreen; also called rec hHGF (R&D systems)
Procedure: Off-rate constants (Koff) of individual Nanobodies were determined by surface plasmon resonance on a Biacore T100 instrument.
Human HGF (R&D) was amine-coupled to a CM5 sensor chip at a density of 2500 relative units. Remaining reactive groups were inactivated using ethanolamine. Nanobody binding was assessed at a single dilution of periplasmic extract, whereas c-Met was tested with a single concentration of 10 nM. Each sample was injected for 2 min at a flow rate of 45 μl/min to allow for binding to chip-bound antigen. Next, binding buffer without Nanobody was sent over the chip at the same flow rate to allow dissociation of bound Nanobody. After 10 min, remaining bound analyte was removed by injecting regeneration solution (1M NaCl, 50 mM NaOH).

T2 sequence (P14210 32-728 limits assumed): as above

| koff | Binder |
| --- | --- |
| 0.00107 s⁻¹ | B1 |
| 0.000936 s⁻¹ | B5 |
| 0.00545 s⁻¹ | B2 |
| 0.00155 s⁻¹ | B6 |
| 0.00345 s⁻¹ | B7 |
| 0.00178 s⁻¹ | B8 |
| 0.00218 s⁻¹ | B9 |
| 0.00175 s⁻¹ | B10 |
| 0.00164 s⁻¹ | B11 |
| 0.00168 s⁻¹ | B12 |
| 0.00163 s⁻¹ | B13 |
| 0.0017 s⁻¹ | B14 |
| 0.00199 s⁻¹ | B15 |
| 0.00312 s⁻¹ | B16 |
| 0.00286 s⁻¹ | B17 |
| 0.000774 s⁻¹ | B18 |
| 0.000377 s⁻¹ | B19 |
| 0.0139 s⁻¹ | B3 |
| 0.0019 s⁻¹ | B4 |
| 0.0008 s⁻¹ | B20 |
| 0.000324 s⁻¹ | B21 |
| 9.37e-06 s⁻¹ | B22 |
| 0.00314 s⁻¹ | B23 |

target: T1, human HGF (R&D material and Peprotech …); assay: SPR (Biacore T100), purified Nanobody, biphasic dissociation, kd2 fitted 300-720 s after injection start

| koff | Binder |
| --- | --- |
| 0.00102 s⁻¹ | B1 |
| 0.00213 s⁻¹ | B2 |
| 0.000952 s⁻¹ | B6 |
| 0.00332 s⁻¹ | B3 |
| 0.000821 s⁻¹ | B4 |

target: T1, human HGF (R&D material and Peprotech …); assay: SPR (Biacore T100), summary table

| koff | Kd | Binder |
| --- | --- | --- |
| 0.001 s⁻¹ |  | B1 |
| 0.001 s⁻¹ |  | B6 |
| 0.006 s⁻¹ | 7.37 nM | B8 |
| 0.0001 s⁻¹ | 1.36 nM | B16 |
| ≤ 1e-05 s⁻¹ | ≤ 0.08 nM | B18 |
| 0.003 s⁻¹ |  | B3 |
| 5e-05 s⁻¹ | 1.14 nM | B21 |
| 0.0005 s⁻¹ | 7.16 nM | B23 |

target: T1, human HGF (R&D material and Peprotech …); assay: SPR (Biacore T100), purified Nanobody, average of R&D and Peprotech HGF
Procedure: Affinity constants (Kd) of individual purified Nanobody clones were determined by surface plasmon resonance on a Biacore T100 instrument essentially as described above. The average was taken of an analysis performed on R&D material and Peprotech material.

| Kd | koff | kon | Binder |
| --- | --- | --- | --- |
| 0.67 nM | 0.000691 s⁻¹ | 1.06e+06 M⁻¹ s⁻¹ | B5 |
| 7.37 nM | 0.00573 s⁻¹ | 753000 M⁻¹ s⁻¹ | B8 |
| 1.36 nM | 0.0001 s⁻¹ | 75200 M⁻¹ s⁻¹ | B16 |
| 0.08 nM | 2.15e-06 s⁻¹ | 27800 M⁻¹ s⁻¹ | B18 |
| 1.14 nM | 5.5e-05 s⁻¹ | 49900 M⁻¹ s⁻¹ | B21 |
| 7.16 nM | 0.00052 s⁻¹ | 92000 M⁻¹ s⁻¹ | B23 |

target: T2, human HGF (R&D Systems, 294-HG/CF); assay: AlphaScreen competition, serial dilution of purified Nanobody; inhibition of biotinylated human HGF binding to c-Met-Fc
Procedure: (§1) In brief, 5 μl of 1/5 prediluted periplasmic extract of individual Nanobody clones were incubated with 3 nM biotinylated HGF, 2 nM c-Met-Fc, streptavidin coated donor beads and anti-human IgG1 Fc Nanobody covalently coupled AlphaScreen acceptor beads. Monoclonal antibody clone 24612 (R&D systems) known to inhibit the HGF/c-Met-Fc interaction, was used as a positive control. Assays were read in an Envision AlphaScreen™ option fitted multimode reader (Perkin Elmer). Individual clones were scored as putative HGF/c-Met-Fc interaction inhibiting if the presence of the periplasmic extract decreased the fluorescent signal of the acceptor beads. Both inhibitory and non-inhibitory clones were identified. A 10-fold reduction in signal with respect to the negative control (irrelevant periplasmic extract and buffer) was used to select the HGF/c-Met inhibiting Nanobodies. As a positive control, anti-HGF monoclonal antibody (R&D systems, clone 24612) was included. FIG. 2 depicts an example of screen of periplasmic extracts using AlphaScreen.
(§2) Serial dilutions of purified Nanobodies were then analyzed for their ability to block the interaction of human HGF with c-Met-Fc using the same AlphaScreen™ assay as described above (1.4). […]

| IC50 (read off the curve) | Binder |
| --- | --- |
| ~3 nM | B5 |
| ~10 nM | B4 |

target: T1, human HGF (R&D material and Peprotech …); assay: SPR (Biacore T100), purified Nanobody, biphasic dissociation, kd1 fitted 125-185 s after injection start; kd1: early phase of the bi-phasic dissociation, fitted 125 to 185 seconds after injection start

| koff | Binder |
| --- | --- |
| 0.00241 s⁻¹ | B6 |

target: T2, human HGF (R&D Systems, 294-HG/CF); assay: AlphaScreen competition, biotinylated HGF and c-Met-Fc, dilution series of purified Nanobody
Procedure: as §1, §2

| IC50 | Binder |
| --- | --- |
| 6.6 nM | B1 |
| 2.1 nM | B6 |
| 2.8 nM | B8 |
| 1.8 nM | B16 |
| 2.8 nM | B18 |
| 26.7 nM | B3 |
| 3 nM | B21 |
| 4.5 nM | B23 |

From patent US20150010546A1 (Ablynx, published 2015)
